# Test results: article PMC10493288, “Identification and characterization of a novel chromosomal aminoglycoside 3’-O-phosphotransferase, APH(3′)-Id, from Kluyvera intermedia DW18 isolated from the sewage of an animal farm” (Frontiers in Microbiology, 2023)
# Assays:
# Assay in all cases: purified protein
# Assay type in all cases: biochemical, Kluyvera intermedia
# Conditions in all cases: 1 mM ATP, 1 mM MgCl2, 2 mM KCl, 100 mM HEPES pH 7.5
# [1] = test system: NC[C@@H]1O[C@H](O[C@H]2[C@@H](O)[C@H](O[C@@H]3[C@@H](O)[C@H](N)C[C@H](N)[C@H]3O[C@H]3O[C@H](CO)[C@@H](O)[C@H](O)[C@H]3N)O[C@@H]2CO)[C@H](N)[C@@H](O)[C@@H]1O
# [2] = test system: NC[C@H]1O[C@H](O[C@H]2[C@H](O)[C@@H](O[C@H]3O[C@H](CO)[C@@H](O)[C@H](N)[C@H]3O)[C@H](N)C[C@@H]2N)[C@H](O)[C@@H](O)[C@@H]1O
# [3] = test system: NC[C@H]1O[C@H](O[C@H]2[C@H](O[C@@H]3O[C@H](CO)[C@@H](O)[C@H]3O)[C@@H](O)[C@H](N)C[C@@H]2N)[C@H](N)[C@@H](O)[C@@H]1O
substance,measurement,setting,value
APH(3′)-Id (Kluyvera intermedia),Km,[1],12.19 ± 1.56 µM
same,kcat,[1],2.64 ± 0.072 s⁻¹
same,kcat/Km,[1],218000 ± 21000 M⁻¹ s⁻¹
same,Km,[2],10.04 ± 2.95 µM
same,kcat,[2],1.06 ± 0.114 s⁻¹
same,kcat/Km,[2],110000 ± 18000 M⁻¹ s⁻¹
same,Km,[3],3.831 ± 1.57 µM
same,kcat,[3],1.73 ± 0.023 s⁻¹
same,kcat/Km,[3],496000 ± 163000 M⁻¹ s⁻¹
